What was measured:
[1] = molecular target: T1, Beclin 2 (human, full length) (human, UniProt A8MW95 1-431); assay: co-IP with anti-Flag beads and immunoblot; 293T cells co-transfected with HA-Beclin 2 and a Flag-tagged plasmid (FIG. 13C)
T1 construct: All tagged and endogenous human forms are kept under this one id; the form used is named under assay; also called BECN2; Flag-Beclin 2
T1 sequence: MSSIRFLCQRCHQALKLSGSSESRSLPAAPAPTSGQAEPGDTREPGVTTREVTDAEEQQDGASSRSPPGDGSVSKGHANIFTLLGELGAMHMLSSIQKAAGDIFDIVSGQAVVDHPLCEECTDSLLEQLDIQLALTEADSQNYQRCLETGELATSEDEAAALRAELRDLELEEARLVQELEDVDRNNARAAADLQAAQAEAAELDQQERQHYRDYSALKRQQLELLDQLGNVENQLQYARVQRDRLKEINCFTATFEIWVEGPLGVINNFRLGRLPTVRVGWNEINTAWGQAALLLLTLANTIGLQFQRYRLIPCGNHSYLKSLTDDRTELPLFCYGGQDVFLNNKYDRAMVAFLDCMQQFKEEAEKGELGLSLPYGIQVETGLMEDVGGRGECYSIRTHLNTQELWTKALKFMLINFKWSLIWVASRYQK

[2] = molecular target: T2, NLRP3 (human, full length) (human, UniProt Q96P20 1-1036, limits assumed); assay: co-IP with anti-Flag beads; HA-tagged Beclin 2 truncations co-transfected with Flag-NLRP3 (FIG. 25L)
T2 construct: also called Flag-NLRP3; HA-NLRP3
Procedure: (§1) Cell lysates were immunoprecipitated with anti-Flag beads and immunoblotted using indicated antibodies. […] Cell lysates were immunoprecipitated with anti-Flag beads and immunoblotted using indicated antibodies.
(§2) Whole cell lysates obtained 24 h post-transfection or via ligand stimulation were obtained using RIPA lysis buffer and shook on ice for 15 min. The HEK293T cell lysates were immunoprecipitated with anti-Flag conjugated beads (BioLegend) at 4° C. overnight.

[3] = molecular target: T3, AIM2 (human, full length) (human, UniProt O14862 1-343); assay: co-IP with anti-Flag beads; HA-tagged Beclin 2 truncations co-transfected with Flag-AIM2 (FIG. 25K)
T3 construct: also called Flag-AIM2; GFP-AIM2
T3 sequence (looked up): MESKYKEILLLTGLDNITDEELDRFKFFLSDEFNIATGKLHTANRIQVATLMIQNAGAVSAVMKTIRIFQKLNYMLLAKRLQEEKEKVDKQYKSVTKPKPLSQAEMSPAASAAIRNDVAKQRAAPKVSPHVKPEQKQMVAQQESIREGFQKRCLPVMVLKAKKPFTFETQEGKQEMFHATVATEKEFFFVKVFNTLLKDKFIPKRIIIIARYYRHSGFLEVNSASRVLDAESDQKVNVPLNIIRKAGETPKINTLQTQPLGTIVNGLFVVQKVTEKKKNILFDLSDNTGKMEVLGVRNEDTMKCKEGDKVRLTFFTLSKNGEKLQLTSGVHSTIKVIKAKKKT
Procedure: as §1, §2

[4] = molecular target: T1, Beclin 2 (human, full length); assay: co-IP with anti-Flag beads and immunoblot; HEK293T cells co-transfected with HA-Beclin 2 and Flag-tagged SNARE or RAB proteins (FIG. 32A)
Procedure: Whole cell lysates obtained 24 h post-transfection or via ligand stimulation were obtained using RIPA lysis buffer and shook on ice for 15 min. The HEK293T cell lysates were immunoprecipitated with anti-Flag conjugated beads (BioLegend) at 4° C. overnight. […] The beads were washed five times with RIPA lysis buffer, and immunoprecipitates were eluted with 2×SDS loading buffer and subjected to SDS-PAGE gel electrophoresis, followed by immunoblotting. The secondary antibody (Veriblot for IP detection, HRP-conjugated) that only recognized native IgG but not denatured IgG was applied for immunoblotting of endogenous proteins in immunoprecipitates.

ULK1 = molecular target: T4, ULK1 (human, UniProt O75385 1-1050); assay: co-IP with anti-Flag beads and immunoblot; 293T cells transfected with the indicated Flag-tagged plasmid (FIG. 12B)
T4 construct: also called HA-ULK1
T4 sequence (looked up): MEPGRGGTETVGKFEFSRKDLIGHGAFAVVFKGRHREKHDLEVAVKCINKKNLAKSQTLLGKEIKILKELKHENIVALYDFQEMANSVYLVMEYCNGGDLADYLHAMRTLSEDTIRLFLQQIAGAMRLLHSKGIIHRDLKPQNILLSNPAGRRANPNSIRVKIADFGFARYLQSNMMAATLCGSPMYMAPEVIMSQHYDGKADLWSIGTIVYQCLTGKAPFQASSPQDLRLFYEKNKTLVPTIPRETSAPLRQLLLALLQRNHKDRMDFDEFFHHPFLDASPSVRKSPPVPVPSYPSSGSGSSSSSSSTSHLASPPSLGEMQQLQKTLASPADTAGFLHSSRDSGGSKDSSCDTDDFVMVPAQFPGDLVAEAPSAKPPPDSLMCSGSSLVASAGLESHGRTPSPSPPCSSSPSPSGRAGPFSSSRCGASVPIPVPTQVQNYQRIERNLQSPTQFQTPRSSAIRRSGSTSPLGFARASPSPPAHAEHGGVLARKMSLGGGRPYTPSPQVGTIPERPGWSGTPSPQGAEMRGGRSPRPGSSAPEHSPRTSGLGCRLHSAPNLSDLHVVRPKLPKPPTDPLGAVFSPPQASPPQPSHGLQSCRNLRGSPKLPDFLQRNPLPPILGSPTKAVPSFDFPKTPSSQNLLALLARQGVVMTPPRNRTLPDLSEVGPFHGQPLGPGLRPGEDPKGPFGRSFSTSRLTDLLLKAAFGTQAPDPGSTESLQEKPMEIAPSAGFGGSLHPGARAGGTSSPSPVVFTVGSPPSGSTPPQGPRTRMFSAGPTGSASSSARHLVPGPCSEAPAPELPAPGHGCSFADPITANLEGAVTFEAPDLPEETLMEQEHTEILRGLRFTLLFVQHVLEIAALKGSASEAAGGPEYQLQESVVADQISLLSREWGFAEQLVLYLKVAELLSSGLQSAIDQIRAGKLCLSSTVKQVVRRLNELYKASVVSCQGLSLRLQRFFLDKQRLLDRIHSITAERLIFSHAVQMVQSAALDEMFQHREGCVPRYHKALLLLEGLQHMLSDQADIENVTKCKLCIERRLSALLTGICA
Procedure: Data are representative of at least three independent experiments.
The secondary antibody (Veriblot for IP detection reagent HRP) that only recognized native IgG but not denatured IgG was applied for immunoblotting of proteins in immunoprecipitates. For immunoprecipitation of Flag-tagged proteins, cell lysates were incubated with anti-Flag beads (Sigma) at 4° C. overnight. The beads were washed four times with RIPA lysis buffer, and immunoprecipitates were eluted with 2×SDS loading buffer. Immunoblotting was performed by loading the samples on SDS-PAGE gels, conducting electrophoresis, transferring the samples to PVDF membranes (Bio-Rad), and then incubating the membranes with the indicated antibodies. For all immunoblots, the LumiGLO Chemiluminescent Substrate System from KPL (Gaithersburg, MD) was used for protein detection.

T2 sequence (Q96P20 whole entry, the tested form may be a part): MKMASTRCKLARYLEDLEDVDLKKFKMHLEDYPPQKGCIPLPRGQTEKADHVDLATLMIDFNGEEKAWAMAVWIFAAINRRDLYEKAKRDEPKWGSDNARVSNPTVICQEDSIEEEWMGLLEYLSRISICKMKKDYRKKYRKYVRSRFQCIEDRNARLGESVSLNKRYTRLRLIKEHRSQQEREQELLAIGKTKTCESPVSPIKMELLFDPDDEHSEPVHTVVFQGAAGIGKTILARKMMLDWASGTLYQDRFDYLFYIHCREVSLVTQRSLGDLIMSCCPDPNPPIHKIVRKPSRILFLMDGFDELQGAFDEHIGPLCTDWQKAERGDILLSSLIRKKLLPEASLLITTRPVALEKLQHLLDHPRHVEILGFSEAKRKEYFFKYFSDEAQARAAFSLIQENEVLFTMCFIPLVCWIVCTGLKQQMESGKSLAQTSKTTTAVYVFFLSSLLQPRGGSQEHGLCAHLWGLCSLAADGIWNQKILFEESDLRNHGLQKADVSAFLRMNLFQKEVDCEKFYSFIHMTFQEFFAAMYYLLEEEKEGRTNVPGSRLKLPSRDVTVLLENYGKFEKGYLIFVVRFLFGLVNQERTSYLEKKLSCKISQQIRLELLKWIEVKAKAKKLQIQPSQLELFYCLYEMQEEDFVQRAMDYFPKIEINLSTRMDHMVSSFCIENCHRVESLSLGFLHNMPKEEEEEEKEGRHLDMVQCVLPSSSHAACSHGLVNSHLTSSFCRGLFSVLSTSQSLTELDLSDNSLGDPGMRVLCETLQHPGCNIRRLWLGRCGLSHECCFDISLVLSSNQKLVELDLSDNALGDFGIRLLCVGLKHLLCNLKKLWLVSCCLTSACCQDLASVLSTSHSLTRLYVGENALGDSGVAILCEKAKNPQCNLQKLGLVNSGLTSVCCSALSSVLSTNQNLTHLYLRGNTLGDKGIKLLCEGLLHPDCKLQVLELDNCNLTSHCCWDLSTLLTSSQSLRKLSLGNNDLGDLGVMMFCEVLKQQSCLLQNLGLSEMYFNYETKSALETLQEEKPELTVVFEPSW

B1: STX7 (other, human, UniProt O15400 1-261, looked up)
chain: MSYTPGVGGDPAQLAQRISSNIQKITQCSVEIQRTLNQLGTPQDSPELRQQLQQKQQYTNQLAKETDKYIKEFGSLPTTPSEQRQRKIQKDRLVAEFTTSLTNFQKVQRQAAEREKEFVARVRASSRVSGSFPEDSSKERNLVSWESQTQPQVQVQDEEITEDDLRLIHERESSIRQLEADIMDINEIFKDLGMMIHEQGDVIDSIEANVENAEVHVQQANQQLSRAADYQRKSRKTLCIIILILVIGVAIISLIIWGLNH
binding result [1]: binds

B2: Beclin 2/ΔECD (ECD domain deletion fragment, residues 1-248) (other)
chain: MSSIRFLCQRCHQALKLSGSSESRSLPAAPAPTSGQAEPGDTREPGVTTREVTDAEEQQDGASSRSPPGDGSVSKGHANIFTLLGELGAMHMLSSIQKAAGDIFDIVSGQAVVDHPLCEECTDSLLEQLDIQLALTEADSQNYQRCLETGELATSEDEAAALRAELRDLELEEARLVQELEDVDRNNARAAADLQAAQAEAAELDQQERQHYRDYSALKRQQLELLDQLGNVENQLQYARVQRDRLKE
notes: HA-tagged truncation; also called Beclin 2/AECD
binding result [2]: no binding | binding result [3]: no binding

B3: VAMP7 (other, human, UniProt P51809 1-220, looked up)
chain: MAILFAVVARGTTILAKHAWCGGNFLEVTEQILAKIPSENNKLTYSHGNYLFHYICQDRIVYLCITDDDFERSRAFNFLNEIKKRFQTTYGSRAQTALPYAMNSEFSSVLAAQLKHHSENKGLDKVMETQAQVDELKGIMVRNIDLVAQRGERLELLIDKTENLVDSSVTFKTTSRNLARAMCMKNLKLTIIIIIVSIVFIYIIVSPLCGGFTWPSCVKK
binding result [4]: binds

B4: STX8 (other, human, UniProt Q9UNK0 1-236, looked up)
chain: MAPDPWFSTYDSTCQIAQEIAEKIQQRNQYERKGEKAPKLTVTIRALLQNLKEKIALLKDLLLRAVSTHQITQLEGDRRQNLLDDLVTRERLLLASFKNEGAEPDLIRSSLMSEEAKRGAPNPWLFEEPEETRGLGFDEIRQQQQKIIQEQDAGLDALSSIISRQKQMGQEIGNELDEQNEIIDDLANLVENTDEKLRNETRRVNMVDRKSASCGMIMVILLLLVAIVVVAVWPTN
binding result [1]: binds

B5: ATG9A (human) (other, UniProt Q7Z3C6 1-839, looked up)
chain: MAQFDTEYQRLEASYSDSPPGEEDLLVHVAEGSKSPWHHIENLDLFFSRVYNLHQKNGFTCMLIGEIFELMQFLFVVAFTTFLVSCVDYDILFANKMVNHSLHPTEPVKVTLPDAFLPAQVCSARIQENGSLITILVIAGVFWIHRLIKFIYNICCYWEIHSFYLHALRIPMSALPYCTWQEVQARIVQTQKEHQICIHKRELTELDIYHRILRFQNYMVALVNKSLLPLRFRLPGLGEAVFFTRGLKYNFELILFWGPGSLFLNEWSLKAEYKRGGQRLELAQRLSNRILWIGIANFLLCPLILIWQILYAFFSYAEVLKREPGALGARCWSLYGRCYLRHFNELEHELQSRLNRGYKPASKYMNCFLSPLLTLLAKNGAFFAGSILAVLIALTIYDEDVLAVEHVLTTVTLLGVTVTVCRSFIPDQHMVFCPEQLLRVILAHIHYMPDHWQGNAHRSQTRDEFAQLFQYKAVFILEELLSPIVTPLILIFCLRPRALEIIDFFRNFTVEVVGVGDTCSFAQMDVRQHGHPQWLSAGQTEASVYQQAEDGKTELSLMHFAITNPGWQPPRESTAFLGFLKEQVQRDGAAASLAQGGLLPENALFTSIQSLQSESEPLSLIANVVAGSSCRGPPLPRDLQGSRHRAEVASALRSFSPLQPGQAPTGRAHSTMTGSGVDARTASSGSSVWEGQLQSLVLSEYASTEMSLHALYMHQLHKQQAQAEPERHVWHRRESDESGESAPDEGGEGARAPQSIPRSASYPCAAPRPGAPETTALHGGFQRRYGGITDPGTVPRVPSHFSRLPLGGWAEDGQSASRHPEPVPEEGSEDELPPQVHKV
notes: Transmembrane protein; co-IP from RIPA lysates; Tagged and endogenous human forms kept under one id; also called Flag-ATG9A; HA-ATG9A
binding result (ULK1): binds

B6: Beclin 2/ECD (ECD domain alone) (other)
chain: INCFTATFEIWVEGPLGVINNFRLGRLPTVRVGWNEINTAWGQAALLLLTLANTIGLQFQRYRLIPCGNHSYLKSLTDDRTELPLFCYGGQDVFLNNKYDRAMVAFLDCMQQFKEEAEKGELGLSLPYGIQVETGLMEDVGGRGECYSIRTHLNTQELWTKALKFMLINFKWSLIWVASRYQK
notes: HA-tagged truncation
binding result [2]: no binding | binding result [3]: no binding

B7: VAMP8 (other, human, UniProt Q9BV40 1-100, looked up)
chain: MEEASEGGGNDRVRNLQSEVEGVKNIMTQNVERILARGENLEHLRNKTEDLEATSEHFKTTSQKVARKFWWKNVKMIVLICVIVFIIILFIVLFATGAFS
binding result [1]: binds

B8: STX6 (other, human, UniProt O43752 1-255, looked up)
chain: MSMEDPFFVVKGEVQKAVNTAQGLFQRWTELLQDPSTATREEIDWTTNELRNNLRSIEWDLEDLDETISIVEANPRKFNLDATELSIRKAFITSTRQVVRDMKDQMSTSSVQALAERKNRQALLGDSGSQNWSTGTTDKYGRLDRELQRANSHFIEEQQAQQQLIVEQQDEQLELVSGSIGVLKNMSQRIGGELEEQAVMLEDFSHELESTQSRLDNVMKKLAKVSHMTSDRRQWCAIAILFAVLLVVLILFLVL
notes: also called syntaxin 6
binding result [1]: binds

B9: RAB8A (other, human, UniProt P61006 1-207, looked up)
chain: MAKTYDYLFKLLLIGDSGVGKTCVLFRFSEDAFNSTFISTIGIDFKIRTIELDGKRIKLQIWDTAGQERFRTITTAYYRGAMGIMLVYDITNEKSFDNIRNWIRNIEEHASADVEKMILGNKCDVNDKRQVSKERGEKLALDYGIKFMETSAKANINVENAFFTLARDIKAKMDKKLEGNSPQGSNQGVKITPDQQKRSSFFRCVLL
binding result [1]: binds

— patent US20240025959A1 (UNIVERSITY OF SOUTHERN CALIFORNIA, published 2024)
